In publication doi:10.1101/188169:

Target: endogenous α-SYN from human postmortem brain (substantia nigra) (human (endogenous in postmortem brain)) (UniProt P37840)

- percent of detected α-SYN that is oligomeric (PD brain): 56%
- percent of detected α-SYN that is oligomeric (control brain): 23%
Substance: endogenous α-SYN from human postmortem brain (substantia nigra) (from UniProt P37840 1-140) (natural protein)
